The target of the assay is T1, extracellular soluble domain of sortilin, residues 78-755 (Homo sapiens, UniProt Q99523).
T1 construct: the extracellular soluble domain of sortilin, residues 78-755, was expressed in Expi293F cell line; made in house; host or cells: Expi293F
The assay is described as follows: microplate binding assay, enzymic activity of sortilin-bound GAA tagged protein. From the text: FIG. 2. α-D-glucopyranoside activity of sortilin-bound GAA tagged protein. Extracellular soluble sortilin domain with a C-terminal TwinStrep tag for immobilized on a 96-well microplate. […] A fluorogenic 4-methylumbelliferyl-α-D-glucopyranoside substrate was used to measure α-D-glucopyranoside activity of the sortilin-bound tagged proteins.
For a microplate binding assay, the extracellular soluble domain of sortilin, residues 78-755, was expressed in Expi293F cell line (using Expi293 Expression System; Thermo Fisher, A14635) with a C-terminal TwinStrep affinity tag. Harvests were collected after 5 days. Conditioned media was incubated with StrepTactin XT coated microplates (IBA, 2-4101-001) for 1 hour to immobilize sortilin to the plates. After several washes, wells coated with sortilin were incubated with varying doses of NT-GAA, GAA-NT or GAA diluted into PBS for 30 minutes. The unbound protein was then washed away. The α-D-glucopyranoside activity of the bound GAA tagged protein was measured using a fluorogenic substrate, 4-methylumbelliferyl-α-D-glucopyranoside, at pH 4.8. […] The inflection point in both binding curves indicates bivalency of sortilin for neurotensin.

“GAA: GAA with no NT tag; lysosomal alpha-glucosidase (RefSeq: NM_000152.5) [reference compound]”: the “α-D-glucopyranoside activity of sortilin-bound protein” value (immobilized sortilin, 30 minutes in PBS, 4-methylumbelliferyl-α-D-glucopyranoside, pH 4.8, FIG. 2) is “no α-D-glucopyranoside activity”. Besides, where the note is “inferred from absence of activity in sortilin-coated wells, FIG. 2”, the binding to sortilin result is on record as “did not bind to sortilin”.

The values above are taken from patent publication US20240318157A1, “Neurotensin Variants And Tagged Proteins Comprising Neurotensin Or Sortilin Propeptide” (Amicus Therapeutics, Inc., priority 2021, published 2024).
